We go through twelve molecules from article PMC7305997 (ACS chemical biology, 2020).

Sequences and labels used below:
T1: full length human CIB1 (Homo sapiens, UniProt Q99828)
T1 sequence (Q99828 1-191): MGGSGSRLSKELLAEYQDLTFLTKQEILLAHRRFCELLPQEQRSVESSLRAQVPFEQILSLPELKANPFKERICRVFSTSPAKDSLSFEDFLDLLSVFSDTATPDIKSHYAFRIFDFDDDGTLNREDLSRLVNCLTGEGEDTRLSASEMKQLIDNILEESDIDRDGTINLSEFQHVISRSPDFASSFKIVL

T2: biotinylated CIB1 (Homo sapiens, UniProt Q99828)
T2 sequence (Q99828 1-191): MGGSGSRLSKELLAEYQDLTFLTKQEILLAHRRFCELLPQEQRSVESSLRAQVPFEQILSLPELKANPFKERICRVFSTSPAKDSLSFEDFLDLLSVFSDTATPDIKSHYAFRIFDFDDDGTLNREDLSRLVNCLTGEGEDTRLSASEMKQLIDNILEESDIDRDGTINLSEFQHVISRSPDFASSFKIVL

T3: Full length human CIB1 (calcium and integrin binding protein 1), N-terminal hexahistidine tag (human, UniProt Q99828 1-191)
T3 sequence (looked up): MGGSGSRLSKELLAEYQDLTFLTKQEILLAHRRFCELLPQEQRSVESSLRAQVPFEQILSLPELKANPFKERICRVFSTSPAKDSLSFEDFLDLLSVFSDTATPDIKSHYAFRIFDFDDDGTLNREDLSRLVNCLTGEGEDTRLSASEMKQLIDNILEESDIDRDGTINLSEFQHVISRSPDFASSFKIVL

B1: Acetyl short (Ac-FWYGAMKALYG) (peptide)
peptide: Ac-FWYGAMKALYG
B2: UNC10245092 (NH2-EDGGSFWYGAMKALYG-amide) (peptide)
peptide: H-EDGGSFWYGAMKALYG-NH2
B3: UNC10245092 A5G (peptide)
peptide: EDGGSFWYGGMKALYG
B4: UNC10245092 F1A (peptide)
peptide: EDGGSAWYGAMKALYG
B5: UNC10245092 L9A (peptide)
peptide: EDGGSFWYGAMKAAYG
B6: UNC10245092 A8G (peptide)
peptide: EDGGSFWYGAMKGLYG
B7: UNC10245092 W2A (peptide)
peptide: EDGGSFAYGAMKALYG
B8: UNC10245092 Y3A (peptide)
peptide: EDGGSFWAGAMKALYG
B9: UNC10245092 Y10A (peptide)
peptide: EDGGSFWYGAMKALAG
B10: UNC10245092 M6A (peptide)
peptide: EDGGSFWYGAAKALYG
B11: Acetyl long (Ac-EDGGSFWYGAMKALYG) (peptide)
peptide: Ac-EDGGSFWYGAMKALYG

Ends that are not written are not given here.

The target in one test is T1, full length human CIB1. Put plainly: Isothermal titration calorimetry. The following applies: ITC, 25°C, one site binding model; replicates as for Kd. A general note: In ITC the heat of successive injections is recorded.
Regarding EDGGSFWYGAMKALYG-NH2 [UNC10245092], the “n (binding stoichiometry)” value is recorded as 1.1 ± 0.1 and the ΔH was -14.4 ± 2.2 kcal/mol.

Another test has as its target T2, biotinylated CIB1. Put plainly: biochemical. The class given is binding.
Conditions: not given
As for EDGGSFWYGAMKALYG-NH2 [UNC10245092], it took 46 ± 13 nM to reach half-maximal inhibition (IC50) and the Kd worked out at 46 ± 13 nM.

Another test deals with T3, Full length human CIB1 (calcium and …). Put plainly: ITC.
Conditions: not given
In the case of B1, the Kd turned out to be 52.1 nM, the dH is -14 kcal/mol and the “stoichiometry N” value was determined as 1.1.
On the same counts, the results for B2 are 29.4 nM, -14.4 kcal/mol and 1.1.
As to B3, the dH was -7.7 kcal/mol and the “stoichiometry N” value was 1.
On the same counts, the results for B4 are -9.8 kcal/mol and 0.94.
In the case of B5, the dH was -8.8 kcal/mol and the “stoichiometry N” value is 0.99.
On the same counts, the results for B6 are -13.8 kcal/mol and 1.
Regarding B7, the dH was -5.9 kcal/mol and the “stoichiometry N” value is 0.67.
In the case of B8, the dH was -16.1 kcal/mol and the “stoichiometry N” value is 1.
For the molecule B9, the dH is -7.1 kcal/mol and the “stoichiometry N” value stood at 1.1.
Regarding B10, the dH was -8.1 kcal/mol and the “stoichiometry N” value came out at 1.
B11: the Kd worked out at 45 nM, the dH is -16.1 kcal/mol and the “stoichiometry N” value came out at 1.1.

By IC50 is commonly meant the concentration that inhibits the measured activity by half. Read a low IC50 as inhibition by little substance. The term Kd denotes the equilibrium constant for the complex coming apart. As usually defined, the stoichiometry N is a count of units in the complex or per binding partner.
